Measurements as given in patent US20220332804A1 (CSL INNOVATION, published 2022).
Changes are numbered by the printed parent chain.

Tests used:
Assay in all cases: SPR; KD relative to WT C2;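 further: biacore SPR at 37 °C, anti-C2 mAbs captured on an anti-human IgG chip, alanine or serine C2 surface mutants tested, KD from 1:1 fit compared with wild-type C2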
human C2 E324A = target: T1, human C2 E324A (human, UniProt P06681 21-752)
T1 sequence: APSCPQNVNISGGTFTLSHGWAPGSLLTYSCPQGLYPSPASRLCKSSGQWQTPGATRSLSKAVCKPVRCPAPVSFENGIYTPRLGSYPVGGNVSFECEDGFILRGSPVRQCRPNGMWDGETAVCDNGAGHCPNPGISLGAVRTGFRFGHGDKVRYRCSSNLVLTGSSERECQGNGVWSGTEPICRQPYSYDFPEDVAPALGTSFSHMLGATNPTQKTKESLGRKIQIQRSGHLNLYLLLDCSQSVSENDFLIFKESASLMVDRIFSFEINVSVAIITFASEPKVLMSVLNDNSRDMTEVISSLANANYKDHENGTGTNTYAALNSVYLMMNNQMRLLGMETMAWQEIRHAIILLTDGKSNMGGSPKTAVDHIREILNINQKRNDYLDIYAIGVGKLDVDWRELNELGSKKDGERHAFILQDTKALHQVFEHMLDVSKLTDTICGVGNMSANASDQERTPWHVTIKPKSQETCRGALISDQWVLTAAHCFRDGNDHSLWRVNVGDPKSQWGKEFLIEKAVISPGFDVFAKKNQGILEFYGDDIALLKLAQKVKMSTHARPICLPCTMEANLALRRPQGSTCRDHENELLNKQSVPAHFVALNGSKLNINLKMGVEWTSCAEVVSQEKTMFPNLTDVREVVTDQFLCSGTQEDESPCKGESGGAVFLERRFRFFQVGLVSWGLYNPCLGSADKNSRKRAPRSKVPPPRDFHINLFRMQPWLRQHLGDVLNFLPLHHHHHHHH

human C2 W420A = target: T2, human C2 W420A (human, UniProt P06681 21-752)
T2 sequence: T1 sequence with A304E, W400A

human C2 A472S = target: T3, human C2 A472S (human, UniProt P06681 21-752)
T3 sequence: T1 sequence with A304E, A452S

human C2 L279A = target: T4, human C2 L279A (human, UniProt P06681 21-752)
T4 sequence: T1 sequence with L259A, A304E

Fold diff (human C2 E324A): 1 fold
Fold diff (human C2 W420A): 1 fold
Fold diff (human C2 A472S): 8 fold
Fold diff (human C2 L279A): 8 fold
B1: RF16-214 (antibody, V domains shown)
VH: EVQLLESGGGLVQPGGSLRLSCAASGFTFSWYQMMWVRQAPGKGLEWVSRIYPSGGGTAYADSVKGRFTISRDNSKNTLYLQMNSLRAEDTAVYYCARDAGYGDNWGQGTLVTVSS
VL: QSALTQPPSVSVSPGQTASITCSGDKLGEKYASWYQQKAGQSPVMVIYQDRKRPSGIPERFSGSNSGNTATLTISGTQAMDEADYYCQAWDTRAVVFGGGTKLTVLG
